According to patent US20140086935A1 (Bayer, published 2014):
Like-named read-outs stand apart in the source and are kept apart here. Blank lines part the entries; values can stand above or below the binder they belong to.

Assays:
[1] = molecular target: T1, rat TIMP-1 (rat, UniProt P30120 24-217); experiment: cell-based or functional assay
[2] = molecular target: T1, rat TIMP-1; experiment: cell-based or functional assay; remark: listed apart in the source
[3] = molecular target: T1, rat TIMP-1; experiment: SPR (BIAcore), TIMP-1 coupled to chip, monovalent Fab
Protocol: (§1) For affinity determination, monomeric fractions of affinity and SEC purified Fab fragments or purified IgG1 molecules were used. All experiments were conducted in HBS buffer at a flow rate of 20 μl/min at 25° C. on a BIAcore™ instrument. Antigens in 100 mM sodium acetate pH 5.0 were coupled to a CM 5 sensor chip using standard EDC-NHS coupling chemistry. […] All sensograms were fitted globally using BIA evaluation software. For monovalent Fab fragments a monovalent fit (Langmuir binding) and for IgGs a bivalent fit was applied.

[4] = molecular target: T1, rat TIMP-1; experiment: cell-based or functional assay; remark: listed apart in the source
[5] = molecular target: T1, rat TIMP-1; experiment: cell-based or functional assay; remark: listed apart in the source
[6] = molecular target: T1, rat TIMP-1; experiment: SPR (BIAcore), rat TIMP-1 on chip, monovalent Fab
Protocol: as §1

[7] = molecular target: T1, rat TIMP-1; experiment: SPR (BIAcore), TIMP-1 coupled to chip, monovalent Fab; remark: listed apart in the source
Protocol: as §1

[8] = molecular target: T2, human TIMP-1 (human, UniProt P01033 24-207); experiment: cell-based or functional assay
[9] = molecular target: T1, rat TIMP-1; experiment: cell-based or functional assay; remark: listed apart in the source
[10] = molecular target: T2, human TIMP-1; experiment: SPR (BIAcore), TIMP-1 coupled to chip, monovalent Fab
Protocol: as §1

[11] = molecular target: T2, human TIMP-1; experiment: cell-based or functional assay; remark: listed apart in the source
[12] = molecular target: T2, human TIMP-1; experiment: SPR (BIAcore), TIMP-1 coupled to chip, monovalent Fab; remark: listed apart in the source
Protocol: as §1

[13] = molecular target: T2, human TIMP-1; experiment: cell-based or functional assay; remark: listed apart in the source
[14] = molecular target: T2, human TIMP-1; experiment: SPR (BIAcore), TIMP-1 coupled to chip, monovalent Fab; remark: listed apart in the source
Protocol: as §1

[15] = molecular target: T2, human TIMP-1; experiment: cell-based or functional assay; remark: listed apart in the source
[16] = molecular target: T2, human TIMP-1; experiment: SPR (BIAcore), TIMP-1 coupled to chip, monovalent Fab; remark: listed apart in the source
Protocol: as §1

[17] = molecular target: T2, human TIMP-1; experiment: SPR (BIAcore), human TIMP-1 on chip, IgG1, bivalent fit (avidity)
Protocol: as §1

T1 sequence (P30120 24-217 limits assumed): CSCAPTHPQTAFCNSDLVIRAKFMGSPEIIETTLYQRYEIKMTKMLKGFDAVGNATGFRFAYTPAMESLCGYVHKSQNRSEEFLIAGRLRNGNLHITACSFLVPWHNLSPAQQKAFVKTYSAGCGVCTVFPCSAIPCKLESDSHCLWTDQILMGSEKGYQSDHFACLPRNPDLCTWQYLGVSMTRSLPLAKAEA

B2: MS-BW-14 (Fab, V domains shown)
VH: QVQLVQSGAEVKKPGSSVKVSCKASGGTFSSYAISWVRQAPGQGLEWMGGIIPIFGTANYAQKFQGRVTITADESTSTAYMELSSLRSEDTAVYYCARWSDQSYHYYWHPYFDVWGQGTLVTVSS
VL: DIVLTQPPSVSGAPGQRVTISCSGSSSNIGSNYVSWYQQLPGTAPKLLIYDNNQRPSGVPDRFSGSKSGTSASLAITGLQSEDEADYYCQSWDLEPYVFGGGTKLTVLG
notes: Fab, FLAG + Strep-tag II; not tied by name; also called MS-BW-14 Fab
IC50 in rat protease assay [4]: 14 nM | IC50 in rat protease assay [1]: 14 nM | IC50 (50 % reversal of the inhibition of rat MMP-13 by rat TIMP-1, fluorogenic peptide substrate assay) [5]: ~11 nM | Kd [6]: 13 nM | Kd [3]: 10 nM | Kd [7]: 10 nM

B3: MS-BW-21 (Fab, V domains shown)
VH: QVQLVQSGAEVKKPGSSVKVSCKASGGTFSSYAISWVRQAPGQGLEWMGGIIPIFGTANYAQKFQGRVTITADESTSTAYMELSSLRSEDTAVYYCARYIGYTNVMDIRPGFYLDYWGQGTLVTVSS
VL: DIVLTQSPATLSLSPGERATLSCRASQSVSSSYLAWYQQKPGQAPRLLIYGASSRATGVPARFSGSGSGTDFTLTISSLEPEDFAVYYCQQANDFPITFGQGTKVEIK
IC50 in human protease assay [8]: > 300 nM | IC50 in rat protease assay [9]: 67 nM | IC50 in rat protease assay [4]: 67 nM | Kd [10]: 520 nM | Kd [3]: 36 nM | Kd [7]: 36 nM

B4: MS-BW-39 (Fab, V domains shown)
VH: QVQLVQSGAEVKKPGSSVKVSCKASGGTFSSYAISWVRQAPGQGLEWMGGIIPIFGTANYAQKFQGRVTITADESTSTAYMELSSLRSEDTAVYYCARGYIPYHLFDYWGQGTLVTVSS
VL: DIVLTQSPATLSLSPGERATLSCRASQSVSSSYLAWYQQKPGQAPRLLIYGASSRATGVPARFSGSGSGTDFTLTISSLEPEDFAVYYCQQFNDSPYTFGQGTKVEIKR
notes: Fab, FLAG + Strep-tag II; not tied by name
IC50 in rat protease assay [9]: > 100 nM | IC50 in rat protease assay [4]: > 100 nM | Kd [3]: ~108 nM | Kd [7]: ~108 nM

B5: MS-BW-25 (Fab, V domains shown)
VH: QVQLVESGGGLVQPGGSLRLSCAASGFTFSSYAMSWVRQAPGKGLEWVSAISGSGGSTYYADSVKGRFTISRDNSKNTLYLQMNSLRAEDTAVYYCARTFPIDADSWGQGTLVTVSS
VL: DIALTQPASVSGSPGQSITISCTGTSSDVGGYNYVSWYQQHPGKAPKLMIYDVSNRPSGVSNRFSGSKSGNTASLTISGLQAEDEADYYCQSYDFINVIVFGGGTKLTVLG
notes: as for B4
IC50 in human protease assay [8]: 115 nM | IC50 in rat protease assay [9]: > 300 nM | IC50 in human protease assay [11]: 115 nM | Kd [10]: 25 nM | Kd [3]: 4520 nM | Kd [12]: 25 nM

B6: MS-BW-26 (Fab, V domains shown)
VH: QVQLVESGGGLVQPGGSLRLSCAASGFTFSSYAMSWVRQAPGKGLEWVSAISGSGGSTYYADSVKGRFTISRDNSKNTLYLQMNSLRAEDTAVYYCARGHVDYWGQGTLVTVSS
VL: DIALTQPASVSGSPGQSITISCTGTSSDVGGYNYVSWYQQHPGKAPKLMIYDVSNRPSGVSNRFSGSKSGNTASLTISGLQAEDEADYYCQSYDFVRFMVFGGGTKLTVLG
notes: as for B4
Kd [12]: ~100 nM

B7: MS-BW-27 (Fab, V domains shown)
VH: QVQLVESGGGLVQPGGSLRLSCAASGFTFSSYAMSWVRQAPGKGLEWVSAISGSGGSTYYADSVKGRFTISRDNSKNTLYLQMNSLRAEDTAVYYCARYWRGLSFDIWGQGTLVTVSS
VL: DIALTQPASVSGSPGQSITISCTGTSSDVGGYNYVSWYQQHPGKAPKLMIYDVSNRPSGVSNRFSGSKSGNTASLTISGLQAEDEADYYCQSYDFYKFNVFGGGTKLTVLG
notes: as for B4
Kd [10]: ~74 nM | Kd [12]: ~74 nM

B9: MS-BW-28 (Fab, V domains shown)
VH: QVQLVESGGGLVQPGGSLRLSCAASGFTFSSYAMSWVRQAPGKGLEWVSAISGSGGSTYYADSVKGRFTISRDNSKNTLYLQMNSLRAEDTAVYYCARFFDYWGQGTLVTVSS
VL: DIALTQPASVSGSPGQSITISCTGTSSDVGGYNYVSWYQQHPGKAPKLMIYDVSNRPSGVSNRFSGSKSGNTASLTISGLQAEDEADYYCQSYDFRRFSVFGGGTKLTVLG
notes: as for B4
IC50 in human protease assay [11]: 22 nM | Kd [12]: 10 nM

B11: MS-BW-44-2-15 (Fab, V domains shown)
VH: QVQLVESGGGLVQPGGSLRLSCAASGFTFSSYAMSWVRQAPGKGLEWVSGISGNGVLIFYADSVKGRFTISRDNSKNTLYLQMNSLRAEDTAVYYCARWFDHWGQGTLVTVSS
VL: DIALTQPASVSGSPGQSITISCTGTSSDVGGYNYVSWYQQHPGKAPKLMIYDVSNRPSGVSNRFSGSKSGNTASLTISGLQAEDEADYYCQSYDFVRFMVFGGGTKLTVLG
notes: Fab
IC50 in human protease assay (modified, decreased TIMP-1 and MMP-1) [13]: 0.2 nM | Kd [14]: 0.3 nM

More lines, now with the values ahead:

IC50 in rat protease assay [1]: 1.6 nM | IC50 (50 % reversal of the inhibition of rat MMP-13 by rat TIMP-1, fluorogenic peptide substrate assay) [2]: ~1.3 nM | Kd [3]: 0.8 nM
B1: MS-BW-17-1 (Fab, V domains shown)
VH: QVQLVQSGAEVKKPGESLKISCKGSGYSFTSYWIGWVRQMPGKGLEWMGIIYPGDSDTRYSPSFQGQVTISADKSISTAYLQWSSLKASDTAMYYCARLTNYFDSIYYDHWGQGTLVTVSS
VL: DIALTQPASVSGSPGQSITISCTGTSSDVGGYNYVSWYQQHPGKAPKLMIYDVSNRPSGVSNRFSGSKSGNTASLTISGLQAEDEADYYCQAFDVAPNGKVFGGGTKLTVLG
notes: Fab from LCDR3 optimization of MS-BW-17; also called MS-BW-17-1 Fab; BW-17-1 Fab

IC50 in rat protease assay [4]: 7 nM | IC50 in rat protease assay [1]: 7 nM | Kd [3]: 9 nM | Kd [7]: 9 nM
B8: MS-BW-54 (Fab, V domains shown)
VH: QVQLVQSGAEVKKPGESLKISCKGSGYSFTSYWIGWVRQMPGKGLEWMGIIYPGDSDTRYSPSFQGQVTISADKSISTAYLQWSSLKASDTAMYYCARYYGFEYDLLFDNWGQGTLVTVSS
VL: DIALTQPASVSGSPGQSITISCTGTSSDVGGYNYVSWYQQHPGKAPKLMIYDVSNRPSGVSNRFSGSKSGNTASLTISGLQAEDEADYYCQSYDISGYPVFGGGTKLTVLG
notes: as for B4

IC50 in human protease assay [8]: ~11 nM | IC50 in rat protease assay [9]: > 300 nM | IC50 in rat protease assay [4]: > 300 nM | Kd [10]: ~3 nM | Kd [3]: ~353 nM | Kd [7]: ~353 nM
B10: MS-BW-38 (Fab, V domains shown)
VH: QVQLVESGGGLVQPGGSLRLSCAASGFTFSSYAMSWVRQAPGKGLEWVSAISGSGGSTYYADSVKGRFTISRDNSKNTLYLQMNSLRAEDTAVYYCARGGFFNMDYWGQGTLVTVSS
VL: DIALTQPASVSGSPGQSITISCTGTSSDVGGYNYVSWYQQHPGKAPKLMIYDVSNRPSGVSNRFSGSKSGNTASLTISGLQAEDEADYYCQSYDFTYGSVFGGGTKLTVLG
notes: as for B4

IC50 in human protease assay (modified, 0.4 nM TIMP-1 and MMP-1) [15]: 0.4 nM | IC50 in human protease assay (modified, decreased TIMP-1 and MMP-1) [13]: 0.4 nM | Kd [16]: 0.5 nM | Kd [14]: 0.5 nM
B12: MS-BW-44-2 (Fab, V domains shown)
VH: QVQLVESGGGLVQPGGSLRLSCAASGFTFSSYAMSWVRQAPGKGLEWVSGISGNGVLIFYADSVKGRFTISRDNSKNTLYLQMNSLRAEDTAVYYCARFLDIWGQGTLVTVSS
VL: DIALTQPASVSGSPGQSITISCTGTSSDVGGYNYVSWYQQHPGKAPKLMIYDVSNRPSGVSNRFSGSKSGNTASLTISGLQAEDEADYYCQSYDFVRFMVFGGGTKLTVLG
notes: Fab; MS-BW-44 with a modified HCDR2 cassette

IC50 in human protease assay (modified, decreased TIMP-1 and MMP-1) [13]: 0.3 nM | Kd [14]: 0.5 nM
B13: MS-BW-44-2-16 (Fab, V domains shown)
VH: QVQLVESGGGLVQPGGSLRLSCAASGFTFSSYAMSWVRQAPGKGLEWVSGISGNGVLIFYADSVKGRFTISRDNSKNTLYLQMNSLRAEDTAVYYCARWFDVWGQGTLVTVSS
VL: DIALTQPASVSGSPGQSITISCTGTSSDVGGYNYVSWYQQHPGKAPKLMIYDVSNRPSGVSNRFSGSKSGNTASLTISGLQAEDEADYYCQSYDFVRFMVFGGGTKLTVLG
notes: Fab

IC50 in human protease assay [11]: > 100 nM | Kd [12]: 180 nM
B14: MS-BW-2 (Fab, V domains shown)
VH: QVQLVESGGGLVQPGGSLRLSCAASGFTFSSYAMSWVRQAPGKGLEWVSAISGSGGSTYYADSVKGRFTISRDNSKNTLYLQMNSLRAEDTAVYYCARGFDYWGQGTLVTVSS
VL: DIALTQPASVSGSPGQSITISCTGTSSDVGGYNYVSWYQQHPGKAPKLMIYDVSNRPSGVSNRFSGSKSGNTASLTISGLQAEDEADYYCQSYDFKTYLVFGGGTKLTVLG
notes: as for B4

IC50 in human protease assay [11]: > 100 nM | Kd [12]: 65 nM
B15: MS-BW-1 (Fab, V domains shown)
VH: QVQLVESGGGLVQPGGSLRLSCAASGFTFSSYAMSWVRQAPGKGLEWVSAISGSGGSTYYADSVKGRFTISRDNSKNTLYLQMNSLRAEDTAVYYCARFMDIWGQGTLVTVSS
VL: DIALTQPASVSGSPGQSITISCTGTSSDVGGYNYVSWYQQHPGKAPKLMIYDVSNRPSGVSNRFSGSKSGNTASLTISGLQAEDEADYYCQSYDYQQFTVFGGGTKLTVLG
notes: as for B4

IC50 in human protease assay (modified, 0.4 nM TIMP-1 and MMP-1) [15]: 0.2 nM | IC50 in human protease assay (modified, decreased TIMP-1 and MMP-1) [13]: 0.2 nM | Kd [16]: 0.6 nM | Kd [14]: 0.6 nM
B16: MS-BW-44-6 (Fab, V domains shown)
VH: QVQLVESGGGLVQPGGSLRLSCAASGFTFNSYAMSWVRQAPGKGLEWVSVISGNGSNTYYADSVKGRFTISRDNSKNTLYLQMNSLRAEDTAVYYCARFLDIWGQGTLVTVSS
VL: DIALTQPASVSGSPGQSITISCTGTSSDVGGYNYVSWYQQHPGKAPKLMIYDVSNRPSGVSNRFSGSKSGNTASLTISGLQAEDEADYYCQSYDFVRFMVFGGGTKLTVLG
notes: Fab; MS-BW-44 with modified HCDR1 and HCDR2 cassettes

Kd [17]: ~0.4 nM
B17: MS-BW-3 IgG1 (antibody, V domains shown)
VH: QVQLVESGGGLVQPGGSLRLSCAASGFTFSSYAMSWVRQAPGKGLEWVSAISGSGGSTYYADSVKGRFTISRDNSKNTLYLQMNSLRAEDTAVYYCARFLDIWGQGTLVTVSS
VL: DIALTQPASVSGSPGQSITISCTGTSSDVGGYNYVSWYQQHPGKAPKLMIYDVSNRPSGVSNRFSGSKSGNTASLTISGLQAEDEADYYCQSYDFLRFSVFGGGTKLTVL
notes: Variable regions of Fab MS-BW-3 cloned into human IgG1 vectors; also called negative control IgG1 MS-BW-3; control antibody; copies: 2 + 2
